Measurements taken from paper PMC10519996.

Assays:
[1] = tested on: Q2XVP4; experiment: cryo-EM structure; single-particle cryo-EM of porcine tubulin incubated with GDP on ice, peak fraction of gel filtration (Superdex 200 Increase 3.2/300), 1-2 μM on graphene grids, no cofactors or depolymerizing reagents; heterodimer maps at 3.6 Å and 3.9 Å; tetramers by 2D and 3D classification …
[2] = tested on: Q2XVP4; experiment: cryo-EM structure; single-particle cryo-EM of porcine tubulin (5 mg/ml) incubated with 1.5 mM GMPCPP on ice for 20-30 min, peak fraction of gel filtration (Superdex 200 Increase 3.2/300), 1-2 μM on graphene grids, no cofactors or depolymerizing reagents; heterodimer map at 3.5 Å; tetramers by 2D …

porcine αβ-tubulin heterodimer
percent of the particles per micrograph that are tubulin hexamers (three heterodimers) [1]: 62%, 32%, and 6% | percent of the particles per micrograph that are tubulin tetramers (two heterodimers) [1]: 62%, 32%, and 6% | percent of the particles per micrograph that are tubulin hexamers (three heterodimers) [2]: 64%, 29%, and 7% | percent of the particles per micrograph that are tubulin tetramers (two heterodimers) [2]: 64%, 29%, and 7%
